Here are results for 167 variants from the RNAGym collection of RNA variant scans (doi:10.7554/elife.90254).

The labels stand for the following.
B1: LINE1-full (parent)
chain: UACGUAGGUGGUUUUCCCCUGAUAGUGCUAAGGGGGCCUGGAAGUUUGGACUGGGCAGAGCUCAACACAGCGUGGCAAAGUGGCUGUGGCUAGACUGCCUCUCUGGAUUCCUCGUCACUCAGCAGGGCAUCUCUGAGAGAAAUGCC

The variants in this data set derive from B1. In words: self-cleavage, relative activity (ratio to wild type); higher = more cleavage; in vitro, sequencing; the parent is a self-cleaving ribozyme.
Regarding U100A A124G, the self-cleavage was found to be 1.02. The same measure for C103U A121G: 1.58. Take U100A U119C: the self-cleavage came out at 1.23.

As to U100A U134A, the self-cleavage stood at 1.02. Next, U96C U104C: 0.13. As to U102C G126A, the self-cleavage was 1.65. The same measure for U102C G126U: 1.59. Next, U100A A129U: 1.25. Consider U100A A129G, for which the self-cleavage was determined as 1.49. Next, U102C U109C: 1.38; U102A U115A: 1.43. Consider U100C G126U, for which the self-cleavage came out at 1.37. Turning to C103U G114C, the self-cleavage came out at 1.5.

U100C U119C: the self-cleavage was 1.87.

In the case of U96C G137U, the self-cleavage is 0.06.

Regarding C98A U112C, the self-cleavage came out at 0.05.

For the variant C98U G105C, the self-cleavage was 0.75. The same measure for U100A C146G: 1.26; for C98U U112C: 0.26; for U96C A124U: 0.14. On to U96G U108C, for which the self-cleavage was 0.13. Regarding U96G U108G, the self-cleavage worked out at 0.16.

Take C98U U100G: the self-cleavage stood at 0.05. The same measure for C95U A121G: 0.33; for U96A C128U: 0.07. U96C A129G: the self-cleavage came out at 0.11. Next, U96C A129U: 0.1; C101U A141G: 2; U96A G126A: 0.07.

U102C A138U: the self-cleavage turned out to be 1.49. The same measure for U104A A117G: 1.67. For U96A G97A, the self-cleavage is 0.09. The same measure for U102A A138G: 1.62. The same measure for U100C U115A: 1.87. With U100C U115C, the self-cleavage is 2.98. The same measure for C103U U130C: 0.84. Consider U102A C145U, for which the self-cleavage was found to be 1.04. Next, C101A C113A: 1.41; U102A C146U: 0.99.

Consider U100A U115C, for which the self-cleavage stood at 1.22.

For the variant U96G A117C, the self-cleavage was 0.

Consider U96C U143C, for which the self-cleavage was found to be 0.14. The same measure for C101U: 1.39. On to C101A, for which the self-cleavage was found to be 1.38. C101G: the self-cleavage was determined as 1.78. The same measure for U102A A142U: 1.5. Next, U102C: 1.29. The same measure for U102A: 1.21; for U102G: 0.71; for U102C G127A: 1.7. As to C99U A141G, the self-cleavage amounted to 0.62. Next, C99U A141C: 0.55; U96C G135A: 0.24. For the variant G97A U134G, the self-cleavage is 0.06. Turning to U100A U132C, the self-cleavage came out at 0.65.

As to U96A U115C, the self-cleavage amounted to 0.05. Next, U96A U115A: 0.08.

Regarding U100C C145U, the self-cleavage is 2.29.

Take U96C A107G: the self-cleavage stood at 0.14. Next, U102C A124C: 2.04; U102C A124U: 1.14; U100A U104C: 1.68. Next, U100A U104A: 1.51; U100C A140G: 1.79; U100C A140U: 1.82. As to U100C U112C, the self-cleavage stood at 1.89. In the case of C98U A141G, the self-cleavage was determined as 0.45. Turning to U96G G137A, the self-cleavage amounted to 0.08. For the variant C95U U132C, the self-cleavage is 0.21. Next, G97A A140G: 0.11. Next, U100A U143A: 0.91. Next, U100A U143C: 0.86; C103U A142C: 1.23. Turning to C103U U134C, the self-cleavage worked out at 1.48. As to U96C C113U, the self-cleavage was determined as 0.05. The same measure for U96C C113A: 0.05. The same measure for U96C C113G: 0.11; for U102A A124C: 1.98. Next, U102A A124U: 1.46.

As for U100C A107G, the self-cleavage was 1.73. For U100C A107U, the self-cleavage was 1.21.

Regarding G97A U132C, the self-cleavage came to 0.11.

As to C95U U108C, the self-cleavage stood at 0.42. The same measure for G97U A140G: 0.07; for C99A U109C: 0.41; for U102A C113A: 0.97. Turning to C98U C146U, the self-cleavage came out at 0.32. For the variant C101A A129G, the self-cleavage worked out at 0. The same measure for C101A A129U: 2.2; for U100C C146A: 1.75; for C101A A124G: 0.98. Turning to G97A A142G, the self-cleavage was 0.02.

With G97A A142C, the self-cleavage was found to be 0.14. The same measure for U100G: 1.24; for U100C: 1.79; for U100A: 0.9. With U102C A142G, the self-cleavage was determined as 1.53. Consider U102C A142C, for which the self-cleavage is 1.73. On to U102C A142U, for which the self-cleavage turned out to be 1.26. The same measure for U100C U104C: 2.14; for U100C U104A: 1.37; for U100C G105U: 2.13. For the variant U96A G137A, the self-cleavage is 0.12. The same measure for U102C C133U: 0.47; for U102C C131U: 0.87. The same measure for C103U A140U: 1.72; for G97C: 0.19; for G97A: 0.11. Next, G97U: 0.06; U96A U108C: 0.08; C95U U115C: 0.54. Consider U100C C103U, for which the self-cleavage was 1.65. The same measure for U100C C103A: 0.85. In the case of C95U A117G, the self-cleavage was found to be 0.14. Next, C101U U119C: 1.65; U100C G139U: 2.03; U100A C116U: 0.4. Next, U100C A138U: 1.51; G97A C111U: 0.07; U100C U130C: 2.16.

C101U U115C: the self-cleavage amounted to 1.49. Next, C99U U112A: 1.12; C99U U112C: 0.36.

With U96C U134G, the self-cleavage was 0.11. As to C98U A121U, the self-cleavage was found to be 0.38.

Regarding C98U A121G, the self-cleavage came to 0.44. As for C101U U134C, the self-cleavage was 1.45. Next, U96G A136G: 0.13; U102A C131U: 1.26; U102C U104A: 1.52.

Turning to U102C A121G, the self-cleavage amounted to 1.06.

In the case of U102A U130C, the self-cleavage was 1.89. Turning to U102A U130A, the self-cleavage is 1.28. With U104A C123U, the self-cleavage amounted to 1.51. On to U96A U112A, for which the self-cleavage came out at 0.06.

Consider U96A G139C, for which the self-cleavage worked out at 0.04. The same measure for U102C C123U: 1.21; for U104A C116U: 0.9; for C98U A136G: 0.55. In the case of U100C G125C, the self-cleavage was found to be 1.89. As to C99U A142G, the self-cleavage was determined as 0.58. U96A C118A: the self-cleavage turned out to be 0.02. For U102A C116U, the self-cleavage stood at 0.97. Next, C101U A121G: 1.72.

In the case of U96C C111U, the self-cleavage worked out at 0.12.

For the variant U96A A138U, the self-cleavage amounted to 0.1.

Take U104A A107U: the self-cleavage stood at 1.31. In the case of U100C U143C, the self-cleavage stood at 1.97. The same measure for C98G U112C: 0.12; for C101A A142G: 1.53.

Take U96A G135A: the self-cleavage was determined as 0.03. The same measure for U104A C131U: 1.55; for C98U A138G: 1.15; for U102A A136G: 1.78. For the variant U100C U108C, the self-cleavage worked out at 2.05.

For U96C U119G, the self-cleavage is 0.13.

As for U100C U102C, the self-cleavage was 1.65. Next, C98A U102C: 0.13; C99A U108C: 1.2. With U104A C113U, the self-cleavage amounted to 0.51.

For U104A C113A, the self-cleavage came to 0.91.

U100A U102A: the self-cleavage was determined as 0.49.

Consider U100A U102C, for which the self-cleavage came to 1.7. Next, C95U A107G: 0.21.

Turning to U100C G127C, the self-cleavage came to 2.48. The same measure for C103A A117G: 1.49; for U96C A117G: 0.2.
